# Measured values: the supplement of paper PMC9112550, “Optimization of the antimicrobial peptide Bac7 by deep mutational scanning” (BMC Biology, 2022)
# Tested on: Escherichia coli TOP10
# Test: shrunken log2 fold change of peptide-encoding DNA abundance (4.5 h post-induction vs induction); higher = less antimicrobial activity (less host growth inhibition)
# Settings: time post-induction: 4.5 h; library: site-saturation at positions 5, 18, 19, 20
# 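Also: peptides expressed intracellularly from a pBAD plasmid library in pooled LB shake-flask culture, induced with 0.3% L-arabinose, DNA abundance read by NGS, three biological replicates, DESeq2 with apeglm shrinkage.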
row,Sequence,shrunken log2 fold change
1,RRIRLRPPRLPRPRPRPGAQPRP,0.0336
2,RRIRLRPPRLPRPRPRPVPIPRP,0.125
3,RRIRMRPPRLPRPRPRPWQEPRP,-0.107
4,RRIRPRPPRLPRPRPRPITSPRP,-0.354
5,RRIRERPPRLPRPRPRPTCTPRP,0.199
6,RRIRCRPPRLPRPRPRPMTWPRP,-0.383
7,RRIRSRPPRLPRPRPRPIPRPRP,0.202
8,RRIRGRPPRLPRPRPRPEADPRP,1
9,RRIRMRPPRLPRPRPRPWWTPRP,0.0804
10,RRIRQRPPRLPRPRPRPKFFPRP,-0.0285
11,RRIRPRPPRLPRPRPRPIQWPRP,0.0833
12,RRIRWRPPRLPRPRPRPRETPRP,0.936
13,RRIRIRPPRLPRPRPRPCKYPRP,-1.03
14,RRIRNRPPRLPRPRPRPFIDPRP,-0.114
15,RRIRLRPPRLPRPRPRPDQVPRP,0.0207
16,RRIRFRPPRLPRPRPRPKMCPRP,-0.487
17,RRIRIRPPRLPRPRPRPYCTPRP,-0.215
18,RRIRHRPPRLPRPRPRPFEDPRP,0.0112
19,RRIRRRPPRLPRPRPRPYCCPRP,-0.565
20,RRIRIRPPRLPRPRPRPIHYPRP,-0.791
21,RRIRMRPPRLPRPRPRPIVGPRP,0.108
22,RRIRWRPPRLPRPRPRPWCLPRP,-0.334
23,RRIRHRPPRLPRPRPRPQKFPRP,-0.0301
24,RRIRWRPPRLPRPRPRPFCHPRP,-0.0562
25,RRIRKRPPRLPRPRPRPLEFPRP,0.124

row,Sequence,shrunken log2 fold change
1,RRIRVRPPRLPRPRPRPAAMPRP,0.347
2,RRIRNRPPRLPRPRPRPCVLPRP,-0.202
3,RRIRFRPPRLPRPRPRPQSNPRP,-0.354
4,RRIRIRPPRLPRPRPRPIQHPRP,-0.468
5,RRIRVRPPRLPRPRPRPCDSPRP,-0.0445
6,RRIRQRPPRLPRPRPRPHAPPRP,-0.0421
7,RRIRRRPPRLPRPRPRPVAHPRP,0.605
8,RRIRYRPPRLPRPRPRPNWWPRP,-0.00469
9,RRIRFRPPRLPRPRPRPNWAPRP,0.00252
10,RRIRRRPPRLPRPRPRPMNLPRP,0.0545
11,RRIRPRPPRLPRPRPRPLRHPRP,0.21
12,RRIRQRPPRLPRPRPRPVWPPRP,0.303
13,RRIRLRPPRLPRPRPRPNYAPRP,-0.0328
14,RRIRPRPPRLPRPRPRPEDGPRP,0.0827
15,RRIRTRPPRLPRPRPRPHTRPRP,0.0252
16,RRIRTRPPRLPRPRPRPVPMPRP,-0.299
17,RRIRFRPPRLPRPRPRPAPLPRP,0.516
18,RRIRIRPPRLPRPRPRPAKAPRP,-0.00404
19,RRIRKRPPRLPRPRPRPSCLPRP,-0.307
20,RRIRLRPPRLPRPRPRPKFGPRP,0.146
21,RRIRSRPPRLPRPRPRPQIHPRP,-0.341
22,RRIRGRPPRLPRPRPRPTHQPRP,0.615
23,RRIRERPPRLPRPRPRPIECPRP,-0.339
24,RRIRIRPPRLPRPRPRPHTTPRP,0.0536
25,RRIRERPPRLPRPRPRPFHYPRP,-0.416

row,Sequence,shrunken log2 fold change
1,RRIRYRPPRLPRPRPRPSVAPRP,-0.183
2,RRIRTRPPRLPRPRPRPRFEPRP,0.0138
3,RRIRARPPRLPRPRPRPAHLPRP,0.271
4,RRIRSRPPRLPRPRPRPFIAPRP,-0.275
5,RRIRNRPPRLPRPRPRPYLMPRP,-0.287
6,RRIRERPPRLPRPRPRPNMDPRP,-0.209
7,RRIRARPPRLPRPRPRPAMSPRP,0.43
8,RRIRWRPPRLPRPRPRPRGKPRP,0.227
9,RRIRWRPPRLPRPRPRPQKTPRP,0.119
10,RRIRLRPPRLPRPRPRPTTLPRP,0.0342
11,RRIRQRPPRLPRPRPRPDTDPRP,-0.00927
12,RRIRLRPPRLPRPRPRPWGAPRP,0.261
13,RRIRARPPRLPRPRPRPGGIPRP,0.254
14,RRIRWRPPRLPRPRPRPREEPRP,0.55
15,RRIRHRPPRLPRPRPRPESEPRP,-0.00193
16,RRIRMRPPRLPRPRPRPIGSPRP,0.079
17,RRIRVRPPRLPRPRPRPWMHPRP,-0.406
18,RRIRYRPPRLPRPRPRPANNPRP,-0.45
19,RRIRDRPPRLPRPRPRPSLYPRP,0.266
20,RRIRSRPPRLPRPRPRPPWYPRP,-0.321
21,RRIRVRPPRLPRPRPRPQQSPRP,-0.0738
22,RRIRSRPPRLPRPRPRPWCCPRP,-0.544
23,RRIRRRPPRLPRPRPRPQLDPRP,-0.0387
24,RRIRARPPRLPRPRPRPLKVPRP,-0.0599
25,RRIRRRPPRLPRPRPRPMTGPRP,0.0638
